Data: the DeepSol protein solubility set

Assay: soluble on expression in E. coli; label from the status in PepcDB or PDB records
In the case of “MDYRVLLYYKYVTIDDPETFAAEHLKFCKEHHLKGRILVSTEGINGTLSGTKEDTDKYIEHMHADNRFADLTFKIDEAESHAFKKMHVRPRREIVALDLEEDINPREITGKYYSPKEFKAALEDENTVILDARNDYEYDLGHFRGAIRPDITRFRDLPEWVRNNKEQLDGKNIVTYCTGGIRCEKFSGWLVKEGFENVGQLHGGIATYGKDPETKGQYWDGKMYVFDERISVDVNQIDKTVIGKEHFDGTPCERYINCANPECNKQILVSEENEEKYLGACSYDCAKHERNRYVARHHISNEEWQRRLNNFKDVPEHTHA”, the “soluble on expression in E. coli” value is reported as “not soluble”. In the case of “EGELRLGERVLVVGQRLGTIRFFGTTNFAPGYWYGIELEKPHGKNDGSVGGVQYFSCSPRYGIFAPPSRVQRVTDSLDTLSEI”, the “soluble on expression in E. coli” value is reported as “soluble”. In the case of “MNIGVIGTGNMGTILIEAFLDSGAVKADQLVITNRTLAKAFAIQRAHPGIAVVADAAEVIKQSSLVFLCVKPLDIHPLLQQLAPHWTREHCLVSITSPISVEQLEAAVPCQIVRAIPSIANRALSGSILVTFGSRCSTTCRQTIDDLLRRIASPVYIDEAITRVASDISSCGPAFFSYLLQRFIDAAAAKTAITKEQATMLATDMIIGLGELLKRNLYTLPTLQEKVCVKGGITGEGIAVLEQRMNGVFEEVLAKTHEKFKEDVEKVKQQFS”, the “soluble on expression in E. coli” value is reported as “not soluble”. In the case of “MRKVTVSLIKADVGSVAGHTTVPDELKKAAEENLKNAVDSGLIIDFRVFNAGDDLELLMTHDKGVDSEEIHRLAWETFEKAAGIAKELKLYGAGQDLLKDAFSGNVRGLGPGVAEMEFTERKAEPVIAFMMDKTEPGAFNMPIFRMFADPFNTAGLVIDPTMHQGFVFEIWDIKESKRVFMRTPEEMYDILALIGGKSRFVIKRVYPKEGGKLPADEPVAVISTEKLYEVAGEYVGKDDPVALVRAQSGLPAVGEVLEPFAFPHLVSGWMRGSHNGPIMPVPFKYSKCTRFDGPPRCIAAGFQLANGKIIGPVDMFDDPAFDYTRQKAMEIAEYMRRHGPFEPHRLPSEDMEYTTLPKVLEKLKGRFEEV”, the “soluble on expression in E. coli” value is reported as “not soluble”. With “MSLRSAYLSTESKIVLDVISVSDTHGWIYGHRHLPEYGDYGTLLSYIERTRQKALESEGRSVLAVDAGDLVEGTGLSDLTKVKGEKILEAASYIGFDLQTIGNHESYYKETTDYIHSKVEALFGDRYITTNVFMRDTNVPVGSGRYKYLVLPTGLRVLMLGFLFHTSPYDGVYTIPAREAIASQEITGVLEKYKYQTDLLVLACHIPTYDLEISEIVTELRAFYNQINYTIPIIIIAGHYHQIKNTYCMDGQDKQCYIVEGGCYLRFMQHVTYEFKPMTYSHEGNTYTGYQFSSVDYSLPYNEGHHHHHH” the “soluble on expression in E. coli” value was “soluble”. In the case of “MAIIYAVRERTQSKTAMRKVMDYVVQDKKTMYENENGQRCKLVSGQNCCGDTAFKEFMTTKRQYQKEKGVYFYQYIQSFKPGIHATPQEIHQMGVELAKYFKGYEVQIATHIDRDHWHNHLIVNSVSCETGLKLQFNEKNLEQLRTLSDEICAVHGLDTLKPYQKPKQKPMGAGEYRAAVRGGSYKFKLMNAIDQAMTQSRTREEFIVRMEQMGYQVKWNPHHKYITYTTPEGQRCRDNKLHETKYLKTEMEGYFSAKLRRIEAAQQAGYTGGHPTGTTPADRSSALSAAGQRNTHRPMEHDAGEPDRSHTAVAGIDGIHIHPANRRRRKQYDEELLPERLRQADGSPVEYHTERASADYGEYDFEYGEDDGYDWMEADEYTGALGRKAPAPGHVAHKNESQMGRHRGIDFDDIVALAKAVDDLVNPYNPEEEREKKKKYVPKSDHKKQKKKQHHNHDYELSL”, the “soluble on expression in E. coli” value is reported as “soluble”. For “MGSDKIHHHHHHMKWSEYANLAQQSLEKFYLADTKEQFLNNFYPTENPEEDNKVFNYWWLAHLVEVRLDAYLRTKKQADLEVAEKTYLHNKNRNGGTLIHDFYDDMLWNALAAYRLYKATGKSIYLEDAQLVWQDLVDTGWNDIMGGGFAWRRPQMYYKNTPVNAPFIILSCWLYNELNETKYLEWAMKTYEWQTKVLVREDGFVEDGINRLEDGTIDYEWKFTYNQGVYIGANLELYRITKEAKYLDTANKTAAISLKELTEDGIFKDEGNGGDEGLFKGIFYRYFTDLIEETANKTYRDFVLNSCQILVENAKLDGYLLMGMNWKEKPSGKIPYSAELSGMIALEMAAKLE”, the “soluble on expression in E. coli” value was “not soluble”. For “MSLANLNIFGQEVGADVEGWTTRAFPEKVVLKGNTCRLEPLDRERHGSELFSAYSEAGQKLWTYLPAGPFTNLEEYLEFIKELNETKDTVPFAIINKETERAVGTLCLIRIDEANGSLEVGYVVFSPELQKTIIATEAQFLLMKYVFDDLQYRRYEWKCDSLNGPSRRAAMRLGFKYEGTFRQVVVYKGRTRDTQWFSIIDKEWLRIRKTFEEWLDKTNFENGKQKRGIAAIRESLSNEGHHHHHH”, the “soluble on expression in E. coli” value was “soluble”. For “MTNPWEVSDAEYQKNFAMFGQLTGGQPFMDAVTARNALMRSNLPTQVLSQIWALSDLDKDGRLDIREYSIAMRLALNCLAGIPIPPQLPPSLLVVPARNAPPTWPGSRHGSVDYSQTLPPAIDRRMSQSYIPSAPVSIAGTPSSRHNSISAGSPLNNDRNVFEGRQLENWAIPHHNKLKYSQLFNALDKERLGSLSSQVGRSALGLSGLPTNVLAHIWFLSDVNKDGKLSVDEYAISQYMIEMFKSGFALPKITPLELVRMCGISSRSANNTPELEPGAEPPQKSPAPKTFEDKRQDNLSKGQAELERRRRVLEEEEQRRRAEVEKKEREEEAKKNRERQEKERQAEVERQAELERQRIIEAQREEEEKKRRLEMERRREEDEKMRKVQMEKAKVKQMQVQMPEQKKWNFYNQKQQENERLAQRQQREKTLQFQLQALDEKVIDVEVDIGKAKEAVAEVTGFIERMRSTRDEKVARIKELQETNQKTAIESQELGHQLLQKQSAHKETTQRKSELEALRRKRDAIRKAIEDAALELSTEKEKSYNQTEILKTNKEKYKTDVYSKLVAKREEYRNSFELLVHAQTHARSKIGEFEAKSAPASAAPAPAPAPAPTTTNGFPANFNDAFGEFDKTDASQRFDADFGATSTADPFAQIAQAPAHSKGAVDQSAFNIHDTYKCRALFAFEARSEDELSFEPGDVIIVFQSHAAEPGWRAGQLREKVGWFPEAFVEAIAAVPTPGGDPPIQNMPPNMTPSSSVDQIGVKAARKAEIAAAMGLTEGGAPPASSAPAAAAVISQCIAQFQWRARNEEDLSFAKGDTIEVLEKQEMKWKGRNPAGEIGWFPKSYVKEVGATTSTTTPIVSPSKASAGAPGAAAGAQYDVVPSDVTLQASETAPQQQLYTVIYDFEAVETTDLALHVGDTILVLEKNDEWWKGRCNGREGIFPANYVEISVQQAGDPTPPTQAPTPAAPPTVLCEAKVVVDFVASAPNQLGIKVGEIVKIREKSAAGWWEGELIRNGKPIAGWFPGEYVKVLEEAASPATRATAVYDYEASQPDELGFKTGDVIIVTDKSEAEWWSGHREQDPSKSGLFPSNYVQQQ”, the “soluble on expression in E. coli” value was “not soluble”. With “MSLSTERTERVRPQRVEQNLPPLSWGGSGVQTAYWVQEAVQPGDSLADVLARSGMARDEIARITEKYGGEADLRHLRADQSVHVLVGGDGGAREVQFFTDEDGERNLVALEKKGGIWRRSASEADMKVLPTLRSVVVKTSARGSLARAEVPVEIRESLSGIFAGRFSLDGLKEGDAVRLMYDSLYFHGQQVAAGDILAAEVVKGGTRHQAFYYRSDKEGGGGGNYYDEDGKVLQEKGGFNIEPLVYTRISSPFGYRMHPILHTWRLHTGIDYAAPQGTPVRASADGVITFKGRKGGYGNAVMIRHANGVETLYAHLSAFSQAEGNVRGGEVIGFVGSTGRSTGPHLHYEARINGQPVNPVSVALPTPELTQADKAAFAAQKQKADALLARLRGIPVTVSQSDEGHHHHHH” the “soluble on expression in E. coli” value was “soluble”. For “MLAGHLFAGVGEDVRLFKGITMTYGHNIELGDNAVVHDGVHLDDRGELVVGARASVSNGAHLYTHDHDVVDQTDVTNYRTEIGADARVTQGALVRAGVRVGENALVGSRSVVQGDVPAHHIAVGSPAESVRVKPGWLEHHHHHH”, the “soluble on expression in E. coli” value was “not soluble”. With “MGSDKIHHHHHHMKELVNILDFLPEELGEKIKPMFRVKQIYQWIYQKYANNFSDMSSLPKDLRLELARNFHFSPVKCVKNEQSKDGSIKYLFELIDGLRVESVLLPMKEEKIDAEGKRISHARYTICVSSQVGCKSGCSFCLTAKGGLKRNLSAGEIVGQILWIKKQNNIPYERRVNIVYMGMGEPLDNLKNVSKAVKILAQNEGLAISPRRQTISTSGLAKQIKELGQMNLGVLLAISLHAVNDELRTELMPINKAYNIAAIMDAVREFPIDQRKRVMFEYLLIDGINDKLEHAKELVKLLNGIKAKVNLILFNPHEGSLYKRPSLENAIKFQDLLSNKGVTCTIRESKGLDISAACGQLKERAKEQ” the “soluble on expression in E. coli” value was “not soluble”. For “MGSDKIHHHHHHDDTLTSGTITIAVDETFRPIIEEELQVFYALTPDATVHPIYCSEVEAMKLLLADSVRLAITTRQLTRQETAYLNDKKFFPVSVKMATDGLALIVNKQNTDSLITVDQFKEILTGKVTDWKQLNPASRLGELQLVFDNPNSSTVHYVLDSICGGMPLSKDLKAQKTNPEVISYVAKNPAALGVIGVNWIGNPADSTRLSFNDVIRIMAVSRADSATVGNSFKPYQAYLALNQYPLTRNVYILLNDPKSGLPSGLTSFLTDFRGQRIILKSGLVPATAAVRIVDVKEE”, the “soluble on expression in E. coli” value was “not soluble”. In the case of “MVQSCSAYGCKNRYDKDKPVSFHKFPLTRPSLCKEWEAAVRRKNFKPTKYSSICSEHFTPDCFKRECNNKLLKENAVPTIFLCTEPHDKKEDLLEPQEQLPPPPLPPPVSQVDAAIGLLMPPLQTPVNLSVFCDHNYTVEDTMHQRKRIHQLEQQVEKLRKKLKTAQQRCRRQERQLEKLKEVVHFQKEKDDVSERGYVILPNDYFEIVEVPA”, the “soluble on expression in E. coli” value is reported as “soluble”. For “MSKLLYLVAVDGGEWGERAADRAIHLAEKTHAKVKLVTVIDWPYIHPMIIEGAAAPLLDKEAEEMTVKAKVITPLVEKYNTLSLNITTELLWGDPAVILKEQVEVTNADMIFVGRQGRSSVVDTLFGSVANKLAHSVSVPIVLVP”, the “soluble on expression in E. coli” value was “not soluble”. With “MLVEGSELQSGAQQPRTEAPQHGELQYLRQVEHIMRCGFKKEDRTGTGTLSVFGMQARYSLRDEFPLLTTKRVFWKGVLEELLWFIKGSTNAKELSSKGVRIWDANGSRDFLDSLGFSARQEGDLGPVYGFQWRHFGADYKDMDSDYSGQGVDQLQKVIDTIKTNPDDRRIIMCAWNPKDLPLMALPPCHALCQFYVVNGELSCQLYQRSGDMGLGVPFNIASYALLTYMIAHITGLQPGDFVHTLGDAHIYLNHIEPLKIQLQREPRPFPKLRILRKVETIDDFKVEDFQIEGYNPHPTIKMEMAV” the “soluble on expression in E. coli” value was “soluble”. With “SLHCIPLWRCNRHVESIDKRHCSLVYVPEEIYRYARSLEELLLDANQLRELPEQFFQLVKLRKLGLSDNEIQRLPPEIANFMQLVELDVSRNEIPEIPESISFCKALQVADFSGNPLTRLPESFPELQNLTCLSVNDISLQSLPENIGNLYNLASLELRENLLTYLPDSLTQLRRLEELDLGNNEIYNLPESIGALLHLKDLWLDGNQLSELPQEIGNLKNLLCLDVSENRLERLPEEISGLTSLTDLVISQNLLETIPDGIGKLKKLSILKVDQNRLTQLPEAVGECESLTELVLTENQLMTLPKSIGKLKKLSNLNADRNKLVSLPKEIGGCCSLTVFCVRDNRLTRIPAEVSQATELHVLDVAGNRLLHLPLSLTALKLKALWLSDNQSQPMLTFQTDTDYTTGEKILTCVLLPQLPSEPTCQENLPRCGALENLVNDVSDEAWNERAVNRVSAIRFVEDEKDEEDNETRTLLRRATPHPGELKHMKKTVENLRNDMNAAKGLDSNKNEVNHAIDRVTTS” the “soluble on expression in E. coli” value was “not soluble”. In the case of “QDNALKQVAAMAKIADRYVSAWGSEAQVEDDTIRRLLASLGYDTSSDDALLQSAEKKHKKDVVDPVLVVHQGSAIEVPLYLGVSARESEFDWRLQTEQGEVLEGYLQSQIVRDERAEGGPLVFALPNDLPLGYHTLLIARKRRKAPYEMTLIVTPQACYKQPALAQ”, the “soluble on expression in E. coli” value is reported as “not soluble”.
